This is an account of results in paper PMC4652773, “Functional significance of protein assemblies predicted by the crystal structure of the restriction endonuclease BsaWI”.

Data set [1] concerns the target BsaWI E128A&W262A (Bacillus stearothermophilus W1718).
For data set [2] the target is unchanged. Description: SEC; gel filtration of the tetramerization interface mutants at up to 25 μM protein; Superdex column, room temperature, 20 mM Tris-HCl pH 7.4, 0.5 M NaCl, 5% glycerol. In general terms: Size exclusion chromatography separates by hydrodynamic size, large species first.
Data set [3] shares this target. Description: SEC; gel filtration at 5 μM loading concentration; Superdex column, room temperature, 20 mM Tris-HCl pH 7.4, 0.5 M NaCl, 5% glycerol; oligomeric state from the apparent Mw.
For data set [4] the target is unchanged. Description: native gel or EMSA; 1 nM 33P-labeled 30-bp SP duplex with 0.02-1000 nM protein, 40 mM Tris-acetate pH 8.3, 0.1 mg/ml BSA, 10% glycerol, 5 mM CaCl2, room temperature; oligomeric state of the DNA-bound protein read from the mobility of the complex. On the technique in general: Mobility shift assays separate free from complexed probe on a gel.
Data set [5] addresses BsaWI R130A (Bacillus stearothermophilus W1718).
Data set [6] has the same target. Briefly: SEC; gel filtration of the tetramerization interface mutants at up to 25 μM protein; Superdex column, room temperature, 20 mM Tris-HCl pH 7.4, 0.5 M NaCl, 5% glycerol.
Data set [7] shares this target. Description: SEC; gel filtration at 5 μM loading concentration; Superdex column, room temperature, 20 mM Tris-HCl pH 7.4, 0.5 M NaCl, 5% glycerol; oligomeric state from the apparent Mw.
Data set [8] has the same target. Description: native gel or EMSA; 1 nM 33P-labeled 30-bp SP duplex with 0.02-1000 nM protein, 40 mM Tris-acetate pH 8.3, 0.1 mg/ml BSA, 10% glycerol, 5 mM CaCl2, room temperature; oligomeric state of the DNA-bound protein read from the mobility of the complex.
In data set [9] the target is BsaWI R130A&R259A (Bacillus stearothermophilus W1718).
Data set [10] shares this target. Briefly: SEC; gel filtration of the tetramerization interface mutants at up to 25 μM protein; Superdex column, room temperature, 20 mM Tris-HCl pH 7.4, 0.5 M NaCl, 5% glycerol.
Data set [11] has the same target. Description: SEC; gel filtration at 5 μM loading concentration; Superdex column, room temperature, 20 mM Tris-HCl pH 7.4, 0.5 M NaCl, 5% glycerol; oligomeric state from the apparent Mw.
The target is the same in data set [12]. Description: native gel or EMSA; 1 nM 33P-labeled 30-bp SP duplex with 0.02-1000 nM protein, 40 mM Tris-acetate pH 8.3, 0.1 mg/ml BSA, 10% glycerol, 5 mM CaCl2, room temperature; oligomeric state of the DNA-bound protein read from the mobility of the complex.
Data set [13] has as its target BsaWI K85A (Bacillus stearothermophilus W1718). Briefly: SEC; gel filtration at 5 μM loading concentration; Superdex column, room temperature, 20 mM Tris-HCl pH 7.4, 0.5 M NaCl, 5% glycerol; oligomeric state from the apparent Mw.
The target in data set [14] is BsaWI R259A&W262A (Bacillus stearothermophilus W1718).
The target is the same in data set [15]. Description: SEC; gel filtration of the tetramerization interface mutants at up to 25 μM protein; Superdex column, room temperature, 20 mM Tris-HCl pH 7.4, 0.5 M NaCl, 5% glycerol.
Data set [16] has the same target. Briefly: SEC; gel filtration at 5 μM loading concentration; Superdex column, room temperature, 20 mM Tris-HCl pH 7.4, 0.5 M NaCl, 5% glycerol; oligomeric state from the apparent Mw.
Data set [17] shares this target. Briefly: native gel or EMSA; 1 nM 33P-labeled 30-bp SP duplex with 0.02-1000 nM protein, 40 mM Tris-acetate pH 8.3, 0.1 mg/ml BSA, 10% glycerol, 5 mM CaCl2, room temperature; oligomeric state of the DNA-bound protein read from the mobility of the complex.
For data set [18], the target named is BsaWI E128A&R130A (Bacillus stearothermophilus W1718).
The target is the same in data set [19]. Description: SEC; gel filtration of the tetramerization interface mutants at up to 25 μM protein; Superdex column, room temperature, 20 mM Tris-HCl pH 7.4, 0.5 M NaCl, 5% glycerol.
Data set [20] has the same target. Description: SEC; gel filtration at 5 μM loading concentration; Superdex column, room temperature, 20 mM Tris-HCl pH 7.4, 0.5 M NaCl, 5% glycerol; oligomeric state from the apparent Mw.
Data set [21] shares this target. Briefly: native gel or EMSA; 1 nM 33P-labeled 30-bp SP duplex with 0.02-1000 nM protein, 40 mM Tris-acetate pH 8.3, 0.1 mg/ml BSA, 10% glycerol, 5 mM CaCl2, room temperature; oligomeric state of the DNA-bound protein read from the mobility of the complex.
In data set [22] the target is BsaWI D175A (Bacillus stearothermophilus W1718). Description: SEC; gel filtration at 5 μM loading concentration; Superdex column, room temperature, 20 mM Tris-HCl pH 7.4, 0.5 M NaCl, 5% glycerol; oligomeric state from the apparent Mw.
Data set [23] deals with BsaWI D145A (Bacillus stearothermophilus W1718). The data set is described as above.
Data set [24] has as its target BsaWI R259A (Bacillus stearothermophilus W1718).
The target is the same in data set [25]. Briefly: SEC; gel filtration of the tetramerization interface mutants at up to 25 μM protein; Superdex column, room temperature, 20 mM Tris-HCl pH 7.4, 0.5 M NaCl, 5% glycerol.
Data set [26] has the same target. Description: SEC; gel filtration at 5 μM loading concentration; Superdex column, room temperature, 20 mM Tris-HCl pH 7.4, 0.5 M NaCl, 5% glycerol; oligomeric state from the apparent Mw.
Data set [27] shares this target. Briefly: native gel or EMSA; 1 nM 33P-labeled 30-bp SP duplex with 0.02-1000 nM protein, 40 mM Tris-acetate pH 8.3, 0.1 mg/ml BSA, 10% glycerol, 5 mM CaCl2, room temperature; oligomeric state of the DNA-bound protein read from the mobility of the complex.
For data set [28], the target named is BsaWI E128A (Bacillus stearothermophilus W1718).
Data set [29] has the same target. Description: SEC; gel filtration of the tetramerization interface mutants at up to 25 μM protein; Superdex column, room temperature, 20 mM Tris-HCl pH 7.4, 0.5 M NaCl, 5% glycerol.
Data set [30] shares this target. Briefly: SEC; gel filtration at 5 μM loading concentration; Superdex column, room temperature, 20 mM Tris-HCl pH 7.4, 0.5 M NaCl, 5% glycerol; oligomeric state from the apparent Mw.
Data set [31] has the same target. Briefly: native gel or EMSA; 1 nM 33P-labeled 30-bp SP duplex with 0.02-1000 nM protein, 40 mM Tris-acetate pH 8.3, 0.1 mg/ml BSA, 10% glycerol, 5 mM CaCl2, room temperature; oligomeric state of the DNA-bound protein read from the mobility of the complex.
In data set [32] the target is restriction endonuclease BsaWI, wild type (Bacillus stearothermophilus W1718). Briefly: SEC; gel filtration of the BsaWI-DNA complex with the 30 bp SP oligoduplex; Superdex column, room temperature, 20 mM Tris-HCl pH 7.4, 0.5 M NaCl, 5% glycerol.
Data set [33] shares this target.
For data set [34] the target is unchanged. Briefly: SEC; gel filtration at low loading concentrations (0.25-1 μM); Superdex column, room temperature, 20 mM Tris-HCl pH 7.4, 0.5 M NaCl, 5% glycerol.
Data set [35] shares this target. Briefly: SEC; gel filtration at 2.5-5 μM loading concentration (concentration series); Superdex column, room temperature, 20 mM Tris-HCl pH 7.4, 0.5 M NaCl, 5% glycerol.
Data set [36] has the same target. Briefly: SEC; gel filtration at 5 μM loading concentration; Superdex column, room temperature, 20 mM Tris-HCl pH 7.4, 0.5 M NaCl, 5% glycerol; oligomeric state from the apparent Mw.
For data set [37] the target is unchanged. Briefly: native gel or EMSA; 1 nM 33P-labeled 30-bp SP duplex with 0.02-1000 nM protein, 40 mM Tris-acetate pH 8.3, 0.1 mg/ml BSA, 10% glycerol, 5 mM CaCl2, room temperature; oligomeric state of the DNA-bound protein read from the mobility of the complex.
In data set [38] the target is T1, BsaWI wt (UniProt Q6UQ65 1-272).
T1 sequence: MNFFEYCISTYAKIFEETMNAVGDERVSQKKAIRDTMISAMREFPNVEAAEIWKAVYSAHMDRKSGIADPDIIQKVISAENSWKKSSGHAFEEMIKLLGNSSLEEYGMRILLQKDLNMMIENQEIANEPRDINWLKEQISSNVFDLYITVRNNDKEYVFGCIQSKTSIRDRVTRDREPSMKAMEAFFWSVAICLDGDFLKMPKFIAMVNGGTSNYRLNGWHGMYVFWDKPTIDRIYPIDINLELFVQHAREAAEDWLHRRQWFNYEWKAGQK
Description: EMSA; 5 mM Ca2+; lower mobility complex; EMSA: 40 mM Tris-acetate pH 8.3, 0.1 mg/ml BSA, 10% glycerol, 5 mM CaCl2 or 0.1 mM EDTA, 1 nM DNA, room temperature, 15 min. As to conditions: protein: recombinant; chain copies: 4; label: 33P; blunt.

Data set [39] concerns the target T1, BsaWI wt. Description: crystal structure; 0.02 M CaCl2 in crystallization buffer; no Ca2+ seen; pre-specific complex; 2.40 A; EMSA: 40 mM Tris-acetate pH 8.3, 0.1 mg/ml BSA, 10% glycerol, 5 mM CaCl2 or 0.1 mM EDTA, 1 nM DNA, room temperature, 15 min. As to conditions: protein: recombinant; chain copies: 4; blunt; self-complementary, 2 copies of strand.

Usually stoichiometry N stands for a count of units in the complex or per binding partner. In the case of BsaWI E128A&W262A (enzyme), the ratio of DNA cleavage rate constants kobs for the 2-site and 1-site substrates at optimal enzyme concentration in [1] was determined as 2.2. The stoichiometry N in data set [2], in data set [3] and in [4] was 2 each time.
For BsaWI R130A (enzyme), the ratio of DNA cleavage rate constants kobs for the 2-site and 1-site substrates at optimal enzyme concentration in [5] was 2.4. For the same molecule, the stoichiometry N in data set [6], in data set [7] and in data set [8] was 2 throughout.
BsaWI R130A&R259A (enzyme): the ratio of DNA cleavage rate constants kobs for the 2-site and 1-site substrates at optimal enzyme concentration in data set [9] worked out at 1.1. Besides, the stoichiometry N in data set [10], in data set [11] and in [12] was 2 throughout.
On to BsaWI K85A (enzyme), for which, in [13], the stoichiometry N amounted to 4.
Consider BsaWI R259A&W262A (enzyme), for which the ratio of DNA cleavage rate constants kobs for the 2-site and 1-site substrates at optimal enzyme concentration in [14] worked out at 2.2. Besides, the stoichiometry N in data set [15], in data set [16] and in data set [17] was 2 in each case.
In the case of BsaWI E128A&R130A (enzyme), in data set [18], the ratio of DNA cleavage rate constants kobs for the 2-site and 1-site substrates at optimal enzyme concentration came out at 1.8. Besides, the stoichiometry N in data set [19], in data set [20] and in data set [21] was 2 in each case.
In the case of BsaWI D175A (enzyme), the stoichiometry N in data set [22] worked out at 4.
On to BsaWI D145A (enzyme), for which the stoichiometry N in [23] was found to be 4.
In the case of BsaWI R259A (enzyme), in [24], the ratio of DNA cleavage rate constants kobs for the 2-site and 1-site substrates at optimal enzyme concentration came out at 14.4. The stoichiometry N in data set [25], in data set [26] and in [27] was 2 in each case.
In the case of BsaWI E128A (enzyme), the ratio of DNA cleavage rate constants kobs for the 2-site and 1-site substrates at optimal enzyme concentration in [28] turned out to be 17.9. Also, the stoichiometry N in data set [29], in data set [30] and in [31] was 2 in each case.
For the molecule “restriction endonuclease BsaWI, wild type (enzyme)”, the stoichiometry N in data set [32] is 4; in data set [34], 2; in [35], 4; in data set [36], 4; in [37] it was 4. In data set [33], the ratio of DNA cleavage rate constants kobs for the 2-site and 1-site substrates at optimal enzyme concentration turned out to be 20.6.

B1: NSP (dsDNA)
DNA 1: AATGGGCTCGCACGCCTGGTATTATCGATTGTA
DNA 2: TACAATCGATAATACCAGGCGTGCGAGCCCATT
Usually Kd stands for the constant that tells how readily two partners part at equilibrium. In the case of B1, the dissociation constant Kd with BsaWI wt [38] was around 10 nM.

B2: SP14 (dsDNA)
DNA 1: CTCGACCGGTCGAG
DNA 2: CTCGACCGGTCGAG
In the case of B2, the binding result with BsaWI wt [39] is given as “binds”.
